Results taken from article PMC4070910, “Cathepsin S Signals via PAR2 and Generates a Novel Tethered Ligand Receptor Agonist” (PLoS ONE, 2014).
“Also recorded” adds a separate entry of the source.

Legend:
[1] = test system: PKC (βII Ser660) phosphorylation in PAR2-transfected HeLa cells; assay: Western blot for p-PKC (Ser660) in PAR2-transfected HeLa cells; assay type: cell-based, human; conditions: 10 minutes, room temperature; SLIGRL 10 µM, SLIGKVDGTS 10 µM, KVDGTS 100 µM, cathepsin S 1 µM
Description: HeLa cells were transfected with PAR2 plasmid DNA as described above. Untransfected HeLa cells were plated as a control. Forty-eight hours after transfection, cells were rinsed with PBS three times. Transfected HeLa cells were incubated with either SLIGRL (10 µM), SLIGKVDGTS (10 µM), KVDGTS (100 µM), or cathepsin S (1 µM) at room temperature for 10 minutes. Untransfected HeLa cells were treated with SLIGRL (10 µM) in a similar manner. A subset of transfected HeLa cells remained untreated and served as a negative control. After incubation, cells were harvested, pelleted and lysed by sequential freeze-thaw cycles. Cell lysates were centrifuged at 4°C for 15 minutes. Supernatants were collected and protein concentrations were determined by Bradford assay. Equal amounts of cell lysates were loaded onto NuPAGE Novex Bis-Tris mini gels, electrophoresed and transferred to nitrocellulose membranes using standard protocols. The blot was first probed with rabbit anti-phospho-PKC (βII Ser660) antibody (Cell Signalling Technology, Danvers, MA), and later reprobed with a mouse anti-actin antibody to identify the control actin band at 42 kDa. Primary antibodies were labeled with HRP-conjugated donkey anti-rabbit antibody and HRP-conjugated donkey anti-mouse antibody, respectively, followed by detection of the position of the antigen on the blot.

[2] = test system: PAR2M2 (glycine40 to alanine); assay: Calcium imaging in HeLa cells transfected with PAR2M2; assay type: cell-based, human; conditions: cathepsin S 2 µM, KVDGTS 100 µM
Description: Human PAR2 cDNA was cloned as an Xho I-Hind III fragment (1206 bp) into pcDNA3.1(−). 10 µg of DNA were diluted into 0.5 ml of DMEM and mixed with 0.5 ml of DMEM containing 10 µl of Lipofectamine 2000 transfection reagent and incubated at room temperature for 20 minutes. HeLa cells were grown to confluence, trypsinized and 1×10^6 cells were pelleted in a 15 ml tube by centrifugation at 1000 rpm for 5 minutes. The DMEM-Lipofectamine 2000-DNA mixture (1 ml) was added to the cell pellet, resuspended gently and incubated at room temperature for 20 minutes. Four ml of complete DMEM with 10% FBS were added to the tube, mixed by inverting the tube several times, plated into a 96-well glass bottom plate at 20,000 cells/well, and placed in a 37°C CO2 incubator. HeLa cells transfected with vector alone or salmon sperm DNA (shown in the figures) were plated as a control. The medium was aspirated two days after transfection. Fura-2 was used as a ratiometric calcium-sensitive indicator as follows. […]
Imaging was performed using a Zeiss Axiovert 200 M microscope platform equipped with a flipping filter wheel for ratiometric imaging. […] The software later analyzed all images taken during each excitation period. Typically, ratiometric changes were measured in 10–20 cells in each image. An average of the fluorescence of the cells in each image was calculated and plotted against time in seconds. […]

B1: cathepsin S: Recombinant human cathepsin S, cysteine protease, expressed in E.coli, refolded and activated (protein, UniProt P25774 115-331, looked up)
Cathepsin S: LPDSVDWREKGCVTEVKYQGSCGACWAFSAVGALEAQLKLKTGKLVSLSAQNLVDCSTEKYGNKGCNGGFMTTAFQYIIDNKGIDSDASYPYKAMDQKCQYDSKYRAATCSKYTELPYGREDVLKEAVANKGPVSVGVDARHPSFFLYRSGVYYEPSCTQNVNHGVLVVGYGDLNGKEYWLVKNSWGHNFGEEGYIRMARNKGNHCGIASFPSYPEI
B1 was tested, and the “PKC Ser660 phosphorylation (in words)” value [1] was “induce PKC Ser660 phosphorylation” and the “calcium response on PAR2M2 (in words)” value [2] was “did not induce calcium responses; also recorded: not PAR2M2 or PAR2M3”.
